The source of these data is US7279149B2, “Amino acid composition with increased blood brain barrier permeability” (Mayo Foundation for Medical Education and Research, priority 2003, dated 2007).

For assay [1], the target named is T1, amyloid plaques in APP, PS1 mouse brain (Homo sapiens, UniProt P05067).
T1 construct: host or cells: APP, PS1 mouse brain (earlier studies: Wengenack 2000; Poduslo 2002)
Particulars: PS1 mouse brains ex vivo following IV injection (Poduslo 2002); cited from earlier work.

The target in assay [2] is T2, amyloid plaques in APP, PS1 mouse brain sections (Homo sapiens, UniProt P05067).
T2 construct: from tissue; host or cells: brain of APP (Tg2576) x PS1 (M146L6.2) double transgenic mice
T2 sequence (P05067 672-711 limits assumed): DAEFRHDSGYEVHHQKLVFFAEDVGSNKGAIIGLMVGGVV
Kind of assay: Labeling of amyloid plaques in APP, PS1 transgenic mouse brain sections in vitro. It is filed as binding. Here is the method:
f. Labeling of Amyloid Plaques in Human AD and APP, PS1 Mouse Brain Sections In Vitro with Diamine- and Gadolinium-Substituted Aβ30 Peptides. HPLC-purified ^125I-Aβ40, ^125I-Aβ30, ^125I-[N-4ab/Q-4ab]Aβ30, ^125I-Gd[N-4ab/Q-4ab]Aβ30, or buffer was incubated with sections of unfixed AD temporal lobe cortex using the same procedure we used previously (Wengenack, T. M., et al., Neuroscience 101:939–944, 2000). Briefly, the 15 μm-sections were incubated for 3 hours at RT with 100 pM radioiodinated peptide or alone in 250 μl of TBS (50 mM Tris HCl, 138 mM sodium chloride, pH 7.0) containing 0.1% BSA, 0.6 mg/ml magnesium chloride, 0.04 mg/ml bacitracin, 0.002 mg/ml chymostatin, and 0.004 mg/ml leupeptin. The sections then underwent immunohistochemistry (IH) for amyloid using an anti-Aβ monoclonal mouse antibody (4G8, 1:1000, Signet Laboratories, Dedham, Mass.). Next, the sections were dipped in an autoradiographic emulsion (Type NTB-3, Kodak, Rochester, N.Y.) for direct comparison of ^125I-labeled amyloid deposits to anti-Aβ IH. The slides were dipped in emulsion, exposed for various durations, and developed according to the instructions. The sections were dehydrated with successive changes of ethanol and xylene and then coverslipped. […]

In assay [3] the target is T3, amyloid plaques in APP, PS1 mice (Homo sapiens, UniProt P05067).
T3 construct: host or cells: APP, PS1 mouse brain (earlier studies: Wengenack 2000; Poduslo 2002)
T3 sequence (P05067 672-711 limits assumed): as above
Conditions: 200 μg, PS1 mice at 27 weeks of age (Wengenack 2000); cited from earlier work.

Assay [4] relates to amyloid plaques in human AD temporal lobe cortex sections. Put plainly: Labeling of amyloid plaques in human AD brain sections in vitro (emulsion autoradiography). In kind it is binding. Here is the method: f. Labeling of Amyloid Plaques in Human AD and APP, PS1 Mouse Brain Sections In Vitro with Diamine- and Gadolinium-Substituted Aβ30 Peptides. HPLC-purified ^125I-Aβ40, ^125I-Aβ30, ^125I-[N-4ab/Q-4ab]Aβ30, ^125I-Gd[N-4ab/Q-4ab]Aβ30, or buffer was incubated with sections of unfixed AD temporal lobe cortex using the same procedure we used previously (Wengenack, T. M., et al., Neuroscience 101:939–944, 2000). Briefly, the 15 μm-sections were incubated for 3 hours at RT with 100 pM radioiodinated peptide or alone in 250 μl of TBS (50 mM Tris HCl, 138 mM sodium chloride, pH 7.0) containing 0.1% BSA, 0.6 mg/ml magnesium chloride, 0.04 mg/ml bacitracin, 0.002 mg/ml chymostatin, and 0.004 mg/ml leupeptin. The sections then underwent immunohistochemistry (IH) for amyloid using an anti-Aβ monoclonal mouse antibody (4G8, 1:1000, Signet Laboratories, Dedham, Mass.). Next, the sections were dipped in an autoradiographic emulsion (Type NTB-3, Kodak, Rochester, N.Y.) for direct comparison of ^125I-labeled amyloid deposits to anti-Aβ IH. The slides were dipped in emulsion, exposed for various durations, and developed according to the instructions. The sections were dehydrated with successive changes of ethanol and xylene and then coverslipped.

Assay [5] concerns the target T4, amyloid plaques in APP, PS1 transgenic mouse brain (Homo sapiens, UniProt P05067).
T4 construct: from tissue; host or cells: brain of APP (Tg2576) x PS1 (M146L6.2) double transgenic mice
Put plainly: Labeling of amyloid plaques in APP, PS1 transgenic mouse brain in vivo after IV injection. Particulars: 21-month old APP, PS1 mice, 750 μg IV, four hours. As for the experimental part:
a. Subjects. These evaluations were performed using transgenic mice that express two mutant human proteins associated with familial AD and have been described in detail elsewhere (Holcomb, L., et al., Nature Med. 4:97–100, 1998). Hemizygous transgenic mice (Tg2576) expressing mutant human amyloid precursor protein (APP695) (Hsiao, K., et al., Science 274:99–102, 1996) were mated with a second strain of hemizygous transgenic mice (M146L6.2) expressing mutant human presenilin 1 (PS1) (Holcomb, L., et al., supra, 1998). The animals were genotyped for the expression of both transgenes by a PCR method using a sample of mouse-tail DNA. […]
g. […] Silver grains from sections exposed for 6 days and 2 weeks were quantitated using unbiased, stereological techniques. Sections exposed for 4 or 8 weeks were somewhat overexposed such that over many of the plaques the exposed silver grains had become confluent could not be counted accurately. Silver grains were counted over plaques in three sections from each animal in the retrosplenial cortex and CA1 region of the hippocampus using a 10-μm×10-μm dissector at 400×. The mean background level of exposed silver grains was also determined for each section. The results were expressed as the mean number of silver grains/100 μm^2 minus the background. […]

T1 sequence (P05067 672-711 limits assumed): as above
T4 sequence (P05067 672-711 limits assumed): as above

As to “(PUT-)Gd-Aβ40: polyamine (putrescine)-modified Gd-Aβ40 of a previous study”, the “contrast enhancement of plaques during MRI” value in assay [1] is recorded as “provide contrast enhancement of plaques”.
As to “Aβ40: human amyloid-β peptide Aβ40, radioiodinated; served as a positive control”, the “labeling of neuritic plaques” value in assay [2] (100 pM, unfixed APP) is recorded as “labeled most of the neuritic plaques”; in assay [4] (100 pM radioiodinated peptide, 3 hours at RT, unfixed human AD temporal lobe cortex sections), “labeled most dense-core, neuritic type plaques”. Moreover, the “duration of exposure to achieve a detectable amount of silver grains” value in assay [2] (APP, equal amounts of peptide) is reported as “one”. In addition, in assay [3], the “labeling of plaques in vivo, previous study” value is reported as “did not label plaques”. Moreover, in assay [4] (100 pM radioiodinated peptide, human AD sections), the “labeling of small amyloid deposits” value was “labeled only a few”. Besides, the “exposure time required to detect exposed silver grains” value in assay [4] (human AD sections, equal amounts of peptide (100 pM)) turned out to be 7 days. In assay [5], the “labeling of plaques in vivo” value was “also labeled plaques in vivo”.
For “Gd-Aβ40: Gd-DTPA substituted Aβ40 of a previous study”, the “contrast enhancement of plaques during MRI” value in assay [1] is reported as “not to provide contrast enhancement of plaques”.
